The data set deals with the molecule itself. In words: SEC; gel permeation analysis in solution, data not shown.

Data on one protein can be found in PMC5352752, “Discovery and characterization of an F420-dependent glucose-6-phosphate dehydrogenase (Rh-FGD1) from Rhodococcus jostii RHA1” (Applied Microbiology and Biotechnology, 2016).

B1: F420-dependent glucose-6-phosphate dehydrogenase Rh-FGD1 from Rhodococcus jostii RHA1 (enzyme, UniProt Q0RVH7 1-335, looked up)
chain: MVIKFGYKASAEQFGPRELVELGVLAEAHGMDSATVSDHFQPWRHEGGHAPFSLAWMTAVGERTSRLQLGTSVMTPTFRYNPAVVAQAFATMGCLYPGRIMLGVGTGEALNEIATGFAGEWPEFKERFARLREAVALMRELWLGDRVDFEGNYYKTVGASIYDVPEGGIPVYIAAGGPVVARYAGRSGDGFICTSGKGMELYTEKLMPAVAEGAEKADRDVAEIDKMIEIKISYDTDPELALENTRFWAPLSLTPEQKHSIDDPIEMERAADALPIEQVAKRWIVASDPDEAVAQIRPYLDAGLNHLVFHAPGHDQKRFLELFQRDLAPRLRGLA
notes: each monomer is comprised of residues 1-334; The native enzyme (tag cleaved) was used for crystallization; also called RHA1_RS43115; native Rh-FGD1; source: E. coli C41(DE3), purified (HisTrap, His-SUMO tag cleaved with SUMO protease, second HisTrap, Superdex 200); not shown: His6, N-terminal, cleaved; SUMO, N-terminal, cleaved
On to B1, for which the “stoichiometry N” value came to 2.

One may read the stoichiometry N as the number of molecules, sites or subunits per partner or assembly.
